From US20250002907A1

Key:
[1] = biological target: Rpk4 monomer (with Avi and hexa-histidine tags) (SARS-CoV-2 (Wuhan-Hu-1))
[2] = biological target: Rpk9 monomer (with Avi and hexa-histidine tags) (SARS-CoV-2 (Wuhan-Hu-1))

CR3022 IgG (antibody)
fold decrease of affinity against wild-type RBD [1]: < 3.5 fold
fold decrease of affinity against wild-type RBD [2]: < 3.5 fold
